These results are taken from article PMC7835349 (Communications Biology, 2021).

The data set can be described thus: In vitro release of AZD4320 from conjugate in rat plasma with 5% HEPES, 37 °C (Fig S8). It is filed as in vitro ADME. To be noted: Rat Plasma 37 °C. How it is done: AZD4320 loading was quantified by 1H NMR spectroscopy. […]
conjugated AZD4320 peak areas. […]
AZD4320 conjugated dendrimer in plasma
Supplementary Figure 8. Comparison and release rate in plasma and buffer. Cumulative in vitro release of AZD4320 measured over time from AZD4320-dendrimer conjugate SPL8977) in phosphate buffered saline (purple circles, n=3) and rat plasma (green squares, n=2) and fit to first order model at 37 °C (n=2) […]

Take AZD4320-MIDA-PEG2100 [AZD0466]: the “Cummulative Release %” value is, setting by setting: (1.06 h, Replicate 1) 2.56%; (1.24 h, Replicate 2) 3.28%; (5.87 h, Replicate 1) 9.61%; (6.04 h, Replicate 2) 11.99%; (10.67 h, Replicate 1) 18.75%; (10.85 h, Replicate 2) 23.05%. For the same substance, the “Cummulative Release %” value reads like this: (15.47 h, Replicate 1) 27.34%; (15.65 h, Replicate 2) 32.24%; (20.27 h, Replicate 1) 39.17%; (20.45 h, Replicate 2) 41.44%.
